Source: US20250270343A1 (Alector, published 2025)
Substitutions are numbered along the chain they refer to. Each block holds one binder with its values, some of them ahead of it.

Columns and labels:
[1] = biological target: T1, soluble mouse GPNMB-Fc polypeptide (Fc of human IgG1 or mouse IgG2A, not specified for the assay) (mouse, UniProt Q99P91 23-502); experiment: FACS, Fab2 blocking moGPNMB-Fc binding to SVEC4-10 cells
T1 construct: extracellular domain; also called moGPNMB-Fc; mGPNMB; not shown: Fc region of human IgG1 or mouse IgG2A; in the Fab2 assay detected with anti-human IgG1 secondary antibody
T1 sequence (looked up): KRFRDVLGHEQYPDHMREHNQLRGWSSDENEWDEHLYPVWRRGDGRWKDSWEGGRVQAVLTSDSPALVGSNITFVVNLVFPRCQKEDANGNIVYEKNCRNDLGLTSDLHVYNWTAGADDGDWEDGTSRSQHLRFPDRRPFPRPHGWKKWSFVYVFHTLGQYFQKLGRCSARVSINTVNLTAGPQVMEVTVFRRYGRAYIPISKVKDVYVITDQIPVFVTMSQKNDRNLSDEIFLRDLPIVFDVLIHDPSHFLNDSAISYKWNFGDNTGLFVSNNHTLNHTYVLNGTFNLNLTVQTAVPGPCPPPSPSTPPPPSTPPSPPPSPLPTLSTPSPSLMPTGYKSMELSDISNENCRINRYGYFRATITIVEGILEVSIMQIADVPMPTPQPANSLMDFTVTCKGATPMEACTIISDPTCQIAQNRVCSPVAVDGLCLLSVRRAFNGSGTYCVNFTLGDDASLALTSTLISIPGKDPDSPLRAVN
Procedure: Purified recombinant Fab2 fragments of select anti-GPNMB antibodies of the present disclosure were produced through transient transfection and purified. Briefly, 2 ug/mL soluble mouse or human GPNMB-Fc diluted in binding buffer was pre-complexed with increasing concentrations of anti-GPNMB Fab2 fragments in 96-well plates. Subsequently, 100,000 SVEC4-10 cells were added per well and incubated on ice for 30 minutes. Soluble moGPNMB-Fc or huGPNMB-Fc bound to cell surface was detected with fluorescent anti-human IgG1 secondary antibody and measured on FACSCanto. IC50 and EC50 values based on changes in MFI values were calculated for each antibody.

[2] = biological target: T2, soluble mouse GPNMB (recombinant extracellular domain) (mouse, UniProt Q99P91 23-502); experiment: SPR Biacore T200, IgG captured on Protein A/G; nb = no binding observed
T2 construct: also called moGPNMB; not shown: C-terminal polyhistidine or Avi-His tag
T2 sequence: T1 sequence (looked up)

[3] = biological target: T3, full-length untagged human GPNMB expressed on cells (human, UniProt Q14956 23-572); experiment: FACS titration, FS293-huGPNMB+ cells
T3 construct: also used here for GPNMB on human monocyte-derived macrophages in the functional assays; also called huGPNMB; Freestyle293-huGPNMB+
T3 sequence: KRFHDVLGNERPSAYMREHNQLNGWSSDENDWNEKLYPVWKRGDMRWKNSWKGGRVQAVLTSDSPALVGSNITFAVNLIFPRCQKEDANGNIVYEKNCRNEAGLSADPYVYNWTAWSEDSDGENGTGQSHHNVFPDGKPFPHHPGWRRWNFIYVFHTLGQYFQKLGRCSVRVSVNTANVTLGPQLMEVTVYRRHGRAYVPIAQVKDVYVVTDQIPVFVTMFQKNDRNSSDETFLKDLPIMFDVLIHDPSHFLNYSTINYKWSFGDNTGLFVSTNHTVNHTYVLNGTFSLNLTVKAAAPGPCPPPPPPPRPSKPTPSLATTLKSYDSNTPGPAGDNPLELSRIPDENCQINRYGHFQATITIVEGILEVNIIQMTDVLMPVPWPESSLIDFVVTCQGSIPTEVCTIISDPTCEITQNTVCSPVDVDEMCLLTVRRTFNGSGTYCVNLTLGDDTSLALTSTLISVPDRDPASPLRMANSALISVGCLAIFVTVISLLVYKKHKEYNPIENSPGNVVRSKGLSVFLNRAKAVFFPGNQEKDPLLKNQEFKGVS
Procedure: Affinity matured anti-GPNMB antibodies of the present disclosure were examined to determine their ability to bind human and mouse GPNMB expressed on FS293-huGPNMB+ or B16F10 cells, respectively. Cell-based affinity measurements were performed to ascertain the apparent affinities of anti-GPNMB antibodies to cell-surface expressed GPNMB. Serial dilutions of anti-GPNMB antibodies of the present disclosure were added to 100,000 FS293-huGPNMB+ or B16F10 cells and allowed to achieve binding equilibrium at 4° C. After addition of fluorescently labeled secondary antibody and brief washing steps, MFI values as a function of titrated antibody concentration were recorded via FACS analysis. Equilibrium binding curves were fit using nonlinear regression analysis with Graphpad Prism 6 software.

[4] = biological target: T3, full-length untagged human GPNMB …; experiment: cell-based or functional assay
[5] = biological target: T3, full-length untagged human GPNMB …; experiment: cell-based or functional assay; remark: listed apart in the source
[6] = biological target: T4, soluble human GPNMB (recombinant extracellular domain) (human, UniProt Q14956 23-498); experiment: SPR Biacore, IgG captured
T4 construct: also called huGPNMB; recombinant human GPNMB extracellular domain; not shown: C-terminal polyhistidine or Avi-His tag
T4 sequence: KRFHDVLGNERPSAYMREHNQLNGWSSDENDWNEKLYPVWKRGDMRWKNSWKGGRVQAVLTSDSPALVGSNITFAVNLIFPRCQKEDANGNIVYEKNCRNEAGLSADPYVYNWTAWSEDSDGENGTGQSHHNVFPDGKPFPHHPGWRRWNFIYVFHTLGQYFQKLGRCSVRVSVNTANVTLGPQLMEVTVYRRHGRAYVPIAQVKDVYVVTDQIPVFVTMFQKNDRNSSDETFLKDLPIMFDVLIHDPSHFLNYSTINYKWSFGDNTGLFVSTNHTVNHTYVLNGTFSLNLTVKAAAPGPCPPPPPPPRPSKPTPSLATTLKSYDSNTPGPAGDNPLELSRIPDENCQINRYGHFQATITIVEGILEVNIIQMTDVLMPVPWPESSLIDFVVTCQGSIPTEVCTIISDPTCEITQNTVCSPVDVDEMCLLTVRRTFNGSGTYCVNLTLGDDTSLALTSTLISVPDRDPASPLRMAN
Procedure: (§1) Binding kinetics of the humanized and affinity matured anti-GPNMB antibodies described above were evaluated using the Biacore T200 (Cytiva). Briefly, IgGs were diluted to 10 μg/mL and captured using a Protein A/G (ThermioFisher, #21186) surface on a CM5 chip that was prepared by amine coupling according to the instrument manufacturer's recommendations. The captured antibodies were tested for their ability to bind human, cynomolgus monkey, and mouse GPNMB recombinant proteins as follows.
(§2) Human, cynomolgus, and mouse GPNMB analytes were diluted in running buffer (HBS-EP+, Teknova, #8022, with 0.5 mg/ml BSA, MP Biomedicals LLC, #820451), to a concentration of 300 nM, then diluted 3-fold serially to 100 nM, 33 nM, and 11 nM. Each sample was injected for 2 minutes to allow association, followed by dissociation in buffer alone for 10 minutes. Each sample injection was followed by the regeneration of the chip with three 30-second injections of 10 mM glycine, pH 1.7. Fresh antibody was captured at the beginning of each cycle.
(§3) Data were analyzed using Biacore evaluation software to generate kinetic constants. The equilibrium dissociation constants (KD) were calculated from the fitted association and dissociation rate constants (k-on and k-off) for each of the anti-GPNMB antibodies.

[7] = biological target: T5, soluble cynomolgus GPNMB (recombinant extracellular domain) (cynomolgus, UniProt Q14956 23-499 (human entry), limits assumed); experiment: SPR Biacore, IgG captured
T5 chain: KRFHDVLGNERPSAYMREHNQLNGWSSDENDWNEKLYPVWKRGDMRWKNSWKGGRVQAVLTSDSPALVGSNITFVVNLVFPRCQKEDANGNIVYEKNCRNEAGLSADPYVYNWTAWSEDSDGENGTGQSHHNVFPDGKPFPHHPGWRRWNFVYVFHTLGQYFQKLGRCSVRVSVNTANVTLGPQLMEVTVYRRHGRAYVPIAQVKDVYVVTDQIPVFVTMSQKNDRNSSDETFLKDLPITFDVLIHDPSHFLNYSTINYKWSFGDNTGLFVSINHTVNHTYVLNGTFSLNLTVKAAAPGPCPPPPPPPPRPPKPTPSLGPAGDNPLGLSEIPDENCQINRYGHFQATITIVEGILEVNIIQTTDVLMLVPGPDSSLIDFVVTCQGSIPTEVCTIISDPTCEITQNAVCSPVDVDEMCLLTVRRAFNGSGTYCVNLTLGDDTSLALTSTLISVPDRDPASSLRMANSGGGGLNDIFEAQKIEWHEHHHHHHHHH
Procedure: as §1, §2, §3

[8] = biological target: T3, full-length untagged human GPNMB …; experiment: cell-based or functional assay; remark: listed apart in the source

B1: recombinant Fab2 fragment of anti-GPNMB antibody GPN-43 (other)
VH: EVQLQQSGPELVKPGASVKISCKASGYTFTDYYMNWVRQSHGKSLEWIGDINPYHGGSTYNQKIKVKATLTVDKSSSTAYMELRSLTSEDSAVYYCARNWPYFDYWGQGTTLTVSS
VL: DIQMTQSPASLSASVGETVTITCRASENIYSFLVWYQQKQGKSPQLLVYNAKTLAEGVPSRFSGSGSGTQFSLKISSLQPEDFGSYYCQHHFGTPPYTFGGGTKLEIK
notes: also called GPN-43 Fab2
IC50 [1]: 9.42 nM

B4: anti-GPNMB antibody GPN-97 (antibody, V domains shown)
VH: QVQLVQSGAEVKKPGASVKVSCKASGYTFTSYWMHWVRQAPGQGLEWMGEINPYDQRTNYAQKFQGRVTMTVDKSTSTVYMELSSLRSEDTAVYYCARSTGNYAWFAYWGQGTLVTVSS
VL: DIVMTQSPDSLAVSLGERATINCKTSQDVSPSLAWYQQKPGQPPKLLIYSGSYRYTGVPDRFSGSGSGTDFTLTISSLQAEDVAVYYCQQHYSIPLTFGGGTKVEIK
binding result [2]: no binding (tested: 300 nM highest analyte concentration)
EC50 [3]: 0.546 nM
Inflammasome: Fold Decrease IL-1β (max response at 0.3 µg/ml) [4]: 0.476 fold
EC50 GCase [5]: 0.22 nM
Fold Increase GCase (max response at 1 µg/ml) [5]: 1.36 fold
Kd [6]: 6.7 nM
koff [6]: 0.00054 s⁻¹
kon [6]: 81000 M⁻¹ s⁻¹
Kd [7]: 8.2 nM
koff [7]: 0.00065 s⁻¹
kon [7]: 79000 M⁻¹ s⁻¹
EC50 PDL1 [8]: 0.75 nM
Fold Increase CD40 (max response at 1 µg/ml) [8]: 1.73 fold
Fold Increase PDL1 (max response at 1 µg/ml) [8]: 2.05 fold

B5: anti-GPNMB antibody GPN-98 (antibody, V domains shown)
VH: B4 VH
VL: B4 VL with T25A, G51A
binding result [2]: no binding (tested: 300 nM highest analyte concentration)
EC50 [3]: 0.407 nM
Inflammasome: Fold Decrease IL-1β (max response at 0.3 µg/ml) [4]: 0.664 fold
EC50 GCase [5]: 0.25 nM
Fold Increase GCase (max response at 1 µg/ml) [5]: 1.39 fold
Kd [6]: 11.9 nM
koff [6]: 0.00091 s⁻¹
kon [6]: 76000 M⁻¹ s⁻¹
Kd [7]: 14.6 nM
koff [7]: 0.0011 s⁻¹
kon [7]: 74000 M⁻¹ s⁻¹
EC50 PDL1 [8]: 1.24 nM
Fold Increase CD40 (max response at 1 µg/ml) [8]: 1.71 fold
Fold Increase PDL1 (max response at 1 µg/ml) [8]: 1.97 fold

Other lines, results leading:

IC50 [1]: 2.33 nM
B2: recombinant Fab2 fragment of anti-GPNMB antibody GPN-48 (other)
VH: QVQLQQSGPELVKPGASVKLSCRASGYGFSSFWMNWVKQRPGKGLEWIGRIYPGKGDTLYNGKFKDKATLTADESSSTAYMQLSSLTSEDSAVYFCARSIYYYDYWYFDVWDTGTTVTVSS
VL: DIVMTQSHKFMSTSVGDRVNITCKASQDVNSAIAWYQQKPGQSPKLLIYSASYRFIGVPDRFTGSGSGTGFTFTISSVQAEDLAVYYCQQHYTTPLTFGAGTKLELK
notes: also called GPN-48 Fab2

IC50 [1]: 3.19 nM
B3: recombinant Fab2 fragment of anti-GPNMB antibody GPN-52 (other)
VH: DVQLQESGPGLVKPSQTVFLTCTVTGISITTGNYRWSWIRQFPGNKLEWIGYIYYSGTITYNPSLTSRITITRDTPKNEFFLEMNSLTAEDTATYYCARDLTHWYFDVWGTGTTVTVSS
VL: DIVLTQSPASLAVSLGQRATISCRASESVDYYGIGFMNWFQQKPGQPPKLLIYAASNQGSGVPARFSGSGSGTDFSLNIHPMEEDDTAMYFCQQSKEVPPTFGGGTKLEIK
notes: also called GPN-52 Fab2
